According to US20250161478A1, “LINKER PAYLOADS AND CONJUGATES THEREOF” (priority 2021, published 2025):

Molecular target: TYRP1 antigen on human melanoma cells (IGR-1, SK-MEL-30, SK-MEL-28) (human) (UniProt P17643)
Assay: cell-based or functional assay

TAAuM (anti-mGP75-maleimidoacetyl-β-Ala-Val-Ser(Glc)-PAB-MMAU), DAR 10 (antibody)
IC50, cell viability (PrestoBlue), IGR-1 cells: 1.3 nM
